Test results taken from US11402384B2 (Duke University, priority 2015, dated 2022).
Substitutions are numbered along the chain they refer to. In names and notes the source's numbering stands.

B1: W244Y B: tsGBP2.13C.W244Y (SEQ ID NO: 49) Badan conjugate (conjugate)
chain: MKLEIFSWWAGDCGPALEALIRLYKQKYPGVEVINATVTGGAGVNAKAVLKTRMLGGDPPDTFQVHAGQELIGTWVVADRMEDLTSLFRQEGWLQAFPKGLIDLLSYKGGIWSVPVNIHRSNVMWYIPAKLKEWGVTPPKTWAEFLATAQTLKRKGLEAPLALGENWTQQHLWESVALATLGADGWNNLWSGKLKFTDPKAVAVWETFGKVLDAANKDAAGLSWQQAVDRVVQGKAAFNIMGDYAAGYMSTTLKLKPGTDFAWTPSPGTSGIFMMLSDSFGLPKGAKNRQNAINWLKLVGSKEGQDTFNPLKGSIAARLDSDPAKYNAYGQSAMKDWKSNRIVGSLVHGAVAPESFMSQFGTVMEIFLQSRNPQAAANAAQAIANQVGLGRGGSHHHHHH
modifications: Badan conjugate; tsGBP2.13C.W244Y (13C, 244Y double substitution mutant with signal peptide replaced with M and a GGSHHHHHH at C-terminus)
B2: K312M B: tsGBP2.13C.K312M (SEQ ID NO: 53) Badan conjugate (conjugate)
chain: B1 chain with Y244W, K312M
modifications: Badan conjugate; tsGBP2.13C.K312M (13C, 312M double substitution mutant with signal peptide replaced with M and a GGSHHHHHH at C-terminus)
B3: W244Y A: tsGBP2.13C.W244Y (SEQ ID NO: 49) Acrylodan conjugate (conjugate)
chain: B1 chain
modifications: Acrylodan conjugate; tsGBP2.13C.W244Y (13C, 244Y double substitution mutant with signal peptide replaced with M and a GGSHHHHHH at C-terminus)
B4: D278S B: tsGBP2.13C.D278S (SEQ ID NO: 51) Badan conjugate (conjugate)
chain: B1 chain with Y244W, D278S
modifications: Badan conjugate; tsGBP2.13C.D278S (13C, 278S double substitution mutant with signal peptide replaced with M and a GGSHHHHHH at C-terminus)
B5: D278N A: tsGBP2.13C.D278N (SEQ ID NO: 50) Acrylodan conjugate (conjugate)
chain: B1 chain with Y244W, D278N
modifications: Acrylodan conjugate; tsGBP2.13C.D278N (13C, 278N double substitution mutant with signal peptide replaced with M and a GGSHHHHHH at C-terminus)
B6: H66Q B: tsGBP2.13C.H66Q (SEQ ID NO: 46) Badan conjugate (conjugate)
chain: B1 chain with H66Q, Y244W
modifications: Badan conjugate; tsGBP2.13C.H66Q (13C, 66Q double substitution mutant with signal peptide replaced with M and a GGSHHHHHH at C-terminus)
B7: H66Q A: tsGBP2.13C.H66Q (SEQ ID NO: 46) Acrylodan conjugate (conjugate)
chain: B1 chain with H66Q, Y244W
modifications: Acrylodan conjugate; tsGBP2.13C.H66Q (13C, 66Q double substitution mutant with signal peptide replaced with M and a GGSHHHHHH at C-terminus)
B8: W244M B: tsGBP2.13C.W244M (SEQ ID NO: 47) Badan conjugate (conjugate)
chain: B1 chain with Y244M
modifications: Badan conjugate; tsGBP2.13C.W244M (13C, 244M double substitution mutant with signal peptide replaced with M and a GGSHHHHHH at C-terminus)
B9: D278N B: tsGBP2.13C.D278N (SEQ ID NO: 50) Badan conjugate (conjugate)
chain: B1 chain with Y244W, D278N
modifications: Badan conjugate; tsGBP2.13C.D278N (13C, 278N double substitution mutant with signal peptide replaced with M and a GGSHHHHHH at C-terminus)
B10: W244M A: tsGBP2.13C.W244M (SEQ ID NO: 47) Acrylodan conjugate (conjugate)
chain: B1 chain with Y244M
modifications: Acrylodan conjugate; tsGBP2.13C.W244M (13C, 244M double substitution mutant with signal peptide replaced with M and a GGSHHHHHH at C-terminus)
B11: W9M A: tsGBP2.13C.W9M (SEQ ID NO: 41) Acrylodan conjugate (conjugate)
chain: B1 chain with W9M, Y244W
modifications: Acrylodan conjugate; tsGBP2.13C.W9M (13C 9M double substitution mutant with signal peptide replaced with M and a GGSHHHHHH at C-terminus)
B12: Q64M A: tsGBP2.13C.Q64M (SEQ ID NO: 45) Acrylodan conjugate (conjugate)
chain: B1 chain with Q64M, Y244W
modifications: Acrylodan conjugate; tsGBP2.13C.Q64M (13C, 64M double substitution mutant with signal peptide replaced with M and a GGSHHHHHH at C-terminus)
B13: D278L A: tsGBP2.13C.D278L (SEQ ID NO: 52) Acrylodan conjugate (conjugate)
chain: B1 chain with Y244W, D278L
modifications: Acrylodan conjugate; tsGBP2.13C.D278L (13C, 278L double substitution mutant with signal peptide replaced with M and a GGSHHHHHH at C-terminus)
B14: W9Y B: tsGBP2.13C.W9Y (SEQ ID NO: 42) Badan conjugate (conjugate)
chain: B1 chain with W9Y, Y244W
modifications: Badan conjugate; tsGBP2.13C.W9Y (13C, 9Y double substitution mutant with signal peptide replaced with M and a GGSHHHHHH at C-terminus)
B15: D278S A: tsGBP2.13C.D278S (SEQ ID NO: 51) Acrylodan conjugate (conjugate)
chain: B1 chain with Y244W, D278S
modifications: Acrylodan conjugate; tsGBP2.13C.D278S (13C, 278S double substitution mutant with signal peptide replaced with M and a GGSHHHHHH at C-terminus)
B16: W9M B: tsGBP2.13C.W9M (SEQ ID NO: 41) Badan conjugate (conjugate)
chain: B1 chain with W9M, Y244W
modifications: Badan conjugate; tsGBP2.13C.W9M (13C 9M double substitution mutant with signal peptide replaced with M and a GGSHHHHHH at C-terminus)
B17: Q64M B: tsGBP2.13C.Q64M (SEQ ID NO: 45) Badan conjugate (conjugate)
chain: B1 chain with Q64M, Y244W
modifications: Badan conjugate; tsGBP2.13C.Q64M (13C, 64M double substitution mutant with signal peptide replaced with M and a GGSHHHHHH at C-terminus)
B18: D278L B: tsGBP2.13C.D278L (SEQ ID NO: 52) Badan conjugate (conjugate)
chain: B1 chain with Y244W, D278L
modifications: Badan conjugate; tsGBP2.13C.D278L (13C, 278L double substitution mutant with signal peptide replaced with M and a GGSHHHHHH at C-terminus)

Experiment: Ratiometric fluorescence glucose titration of fluorescent conjugates
Type: binding
Parameters: key to Shape (fluorescence response to glucose) / Change (fluorescence response to glucose): m, monochromatic; d, dichromatic (i.e. spectral shape change); 0, no change
Details: read-out: Glucose affinity ^appKd; tsGBP 13C affinity mutants, Acrylodan or Badan conjugates
In short: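 Single-cysteine glucose-binding protein mutants labelled site-specifically with thiol-reactive environmentally sensitive fluorophores; emission spectra recorded during glucose titration to detect ligand-mediated intensity and spectral-shape changes for ratiometric read-out. Temperature- and ligand-dependent fluorescence landscapes acquired in 1K steps; binding fitted to single-site fractional saturation.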

| Molecule | Kd |
| --- | --- |
| B1 | 4.1 mM |
| B2 | 26 mM |
| B3 | 5.6 mM |
| B4 | 81 mM |
| B5 | ~100 mM |
| B6 | ~0.1 mM |
| B7 | ~20 mM |
| B8 | ~5 mM |
| B9 | 99 mM |
| B10 | ~40 mM |

Same assay, conditions: read-out: Glucose affinity ^trueKd; tsGBP 13C affinity mutants, Acrylodan or Badan conjugates

| Molecule | Kd |
| --- | --- |
| B1 | 3.8 mM |
| B2 | 39 mM |
| B3 | 7.8 mM |
| B4 | 91 mM |
| B5 | ~100 mM |
| B6 | ~0.09 mM |
| B7 | ~7 mM |
| B8 | ~7 mM |
| B10 | ~20 mM |

Same assay, conditions: tsGBP 13C affinity mutants, Acrylodan or Badan conjugates

| Molecule | Change (fluorescence response to glucose) |
| --- | --- |
| B11 | m |
| B12 | m/d |
| B13 | m |
| B2 | m |
| B14 | m |
| B15 | m/d |
| B4 | m/d |
| B16 | m^c |
| B17 | m |
| B6 | m |
| B9 | m/d |
| B18 | 0 |
